Reference: the Immune Epitope Database (IEDB)

Legend:
HLA-B*57:01 = experiment: IEDB peptide-MHC binding, purified MHC/direct/fluorescence; filed as Kd, often an IC50 or EC50 that approximates it; ≥ and ≤ were set here for values at or beyond the usual limits of such assays
HLA-B*58:01 = experiment: as above
HLA-B*40:01 = experiment: IEDB peptide-MHC binding, purified MHC/competitive/radioactivity; filed as Kd, often an IC50 or EC50 that approximates it; ≥ and ≤ were set here for values at or beyond the usual limits of such assays
HLA-B*44:02 = experiment: as above
HLA-A*32:01 = experiment: as above
HLA-A*02:01 [1] = experiment: IEDB peptide-MHC binding, purified MHC/competitive/fluorescence; filed as Kd, often an IC50 or EC50 that approximates it; ≥ and ≤ were set here for values at or beyond the usual limits of such assays
HLA-A*01:01 = experiment: IEDB peptide-MHC binding, purified MHC/competitive/radioactivity; filed as Kd, often an IC50 or EC50 that approximates it; ≥ and ≤ were set here for values at or beyond the usual limits of such assays
HLA-A*23:01 = experiment: as above
HLA-A*24:02 = experiment: as above
HLA-A*26:01 [2] = experiment: as above
HLA-A*29:02 = experiment: as above
HLA-A*30:01 = experiment: as above
HLA-A*30:02 = experiment: as above
HLA-B*44:03 = experiment: as above
HLA-A*02:06 = experiment: as above
HLA-A*68:02 = experiment: as above
HLA-B*15:01 [3] = experiment: IEDB peptide-MHC binding, purified MHC/competitive/fluorescence; filed as Kd, often an IC50 or EC50 that approximates it; ≥ and ≤ were set here for values at or beyond the usual limits of such assays; conditions: source organism: Human immunodeficiency virus 1
HLA-A*02:02 = experiment: IEDB peptide-MHC binding, purified MHC/competitive/radioactivity; filed as Kd, often an IC50 or EC50 that approximates it; ≥ and ≤ were set here for values at or beyond the usual limits of such assays
HLA-A*02:03 = experiment: as above
HLA-A*02:01 [4] = experiment: as above
HLA-A*26:01 [5] = experiment: IEDB peptide-MHC binding, purified MHC/direct/fluorescence; filed as Kd, often an IC50 or EC50 that approximates it; ≥ and ≤ were set here for values at or beyond the usual limits of such assays
HLA-A*11:01 = experiment: as above; conditions: source organism: SARS-CoV1
HLA-B*15:01 [6] = experiment: as above; conditions: source organism: SARS-CoV1
HLA-B*27:05 = experiment: as above; conditions: source organism: SARS-CoV1
[7] = source organism: Orthohantavirus dobravaense
[8] = source organism: Dengue virus 4 Philippines/H241/1956
[9] = source organism: Dengue virus 3 Martinique/1243/1999
[10] = source organism: Vaccinia virus WR
[11] = source organism: Mammarenavirus juninense
[12] = source organism: Dengue virus 2 Jamaica/1409/1983
[13] = source organism: Dengue virus 3 Singapore/8120/1995
[14] = source organism: Dengue virus 1 Brazil/97-11/1997
[15] = source organism: Mammarenavirus guanaritoense
[16] = source organism: SARS coronavirus Tor2
[17] = source organism: Hepatitis C virus (isolate BK)
[18] = source organism: Vibrio vulnificus YJ016

Q: With KALIATATW as the sequence, how does the Kd (HLA-B*57:01; [7]) read?
A: 25.3 nM

Q: What about the Kd (HLA-B*58:01; [7]) of the same sequence?
A: 12.5 nM

Q: How did the Kd (HLA-B*40:01; [8]) turn out when KEKVVGRII was run?
A: 2860 nM

Q: KEVSETQHG was tested. Which Kd (HLA-B*44:02; [9]) did it give?
A: 6770 nM

Q: For KINEVVEIF, which Kd (HLA-A*32:01; [10]) is on record?
A: 19.3 nM

Q: With KLGIGNSPV as the sequence, how does the Kd (HLA-A*02:01 [1]; source organism: Vaccinia virus Copenhagen) read?
A: 6 nM

Q: For KTPVESWEEI, which Kd (HLA-A*32:01; source organism: Dengue virus 2 Peru/IQT2913/1996) is on record?
A: 1610 nM

Q: Which Kd (HLA-A*01:01; [11]) does the source give for LCLSGDGWPY here?
A: 1030 nM

Q: What about the Kd (HLA-A*23:01; [11]) of the same sequence?
A: ≥ 70000 nM

Q: What about the Kd (HLA-A*24:02; [11]) of the same sequence?
A: ≥ 70300 nM

Q: And the Kd (HLA-A*26:01 [2]; [11])?
A: ≥ 69700 nM

Q: And the Kd (HLA-A*29:02; [11])?
A: 148 nM

Q: What about the Kd (HLA-A*30:01; [11]) of the same sequence?
A: ≥ 55600 nM

Q: What about the Kd (HLA-A*30:02; [11]) of the same sequence?
A: 1460 nM

Q: And the Kd (HLA-A*32:01; [11])?
A: 16900 nM

Q: How did the Kd (HLA-B*40:01; [8]) turn out when LEPPFGDSYI was run?
A: 6420 nM

Q: Which results are given for LERAADVKW?
A: Kd (HLA-B*44:02; [12]): 130 nM; Kd (HLA-B*44:03; [12]): 214 nM

Q: How did the Kd (HLA-A*32:01; [9]) turn out when LFSGVSWVMK was run?
A: 10100 nM

Q: LTAAVLLLV was tested. Which Kd (HLA-A*01:01; [13]) did it give?
A: 16700 nM

Q: What about the Kd (HLA-A*02:06; [13]) of the same sequence?
A: 120 nM

Q: What about the Kd (HLA-A*68:02; [13]) of the same sequence?
A: 1.36 nM

Q: With LTAIANQAAI as the sequence, how does the Kd (HLA-A*01:01; [14]) read?
A: 10200 nM

Q: What about the Kd (HLA-A*68:02; [14]) of the same sequence?
A: 22.9 nM

Q: LVGKLNWASQIY was tested. Which Kd (HLA-B*15:01 [3]) did it give?
A: 2210 nM

Q: MAVGMVSILA was tested. Which Kd (HLA-A*68:02; [12]) did it give?
A: 3.29 nM

Q: What does the source list for MEDKTHVSSW?
A: Kd (HLA-B*44:02; [14]): 82.3 nM; Kd (HLA-B*44:03; [14]): 111 nM

Q: For MMLVPLITV, which Kd (HLA-A*02:02; [10]) is on record?
A: 1020 nM

Q: What about the Kd (HLA-A*02:03; [10]) of the same sequence?
A: ≥ 52100 nM

Q: And the Kd (HLA-A*02:06; [10])?
A: ≥ 77100 nM

Q: What about the Kd (HLA-A*68:02; [10]) of the same sequence?
A: 5160 nM

Q: What does the source list for MSTYGWNLV?
A: Kd (HLA-A*01:01; [12]): 8500 nM; Kd (HLA-A*68:02; [12]): 11.9 nM

Q: Which Kd (HLA-A*32:01; [10]) does the source give for MTMKMMVHI here?
A: 4.75 nM

Q: For NMALKKIREL, which Kd (HLA-A*68:02; source organism: Homo sapiens) is on record?
A: ≥ 60000 nM

Q: NMKWKFNAL was tested. Which Kd (HLA-A*02:01 [1]; source organism: Campylobacter jejuni subsp. jejuni NCTC 11168 = ATCC 700819) did it give?
A: ≥ 20000 nM

Q: Which results are given for PLEGSEDRII?
A: Kd (HLA-A*02:01 [4]; source organism: Homo sapiens): ≥ 70300 nM; Kd (HLA-A*68:02; source organism: Homo sapiens): ≥ 65200 nM

Q: QIHLAIMAV was tested. Which Kd (HLA-A*68:02; [8]) did it give?
A: 287 nM

Q: With QTDPLWQKY as the sequence, how does the Kd (HLA-A*26:01 [5]; source organism: Vibrio vulnificus CMCP6) read?
A: 2780 nM

Q: What does the source list for QWFLDLPLPW?
A: Kd (HLA-A*23:01; [12]): 11.7 nM; Kd (HLA-A*24:02; [12]): 115 nM; Kd (HLA-B*44:03; [12]): 2780 nM

Q: How did the Kd (HLA-B*44:03; [14]) turn out when RETACLGKSY was run?
A: 70.3 nM

Q: How did the Kd (HLA-A*32:01; source organism: Dengue virus 4 Dominica/814669/1981) turn out when RLENVMWKQI was run?
A: 1840 nM

Q: How did the Kd (HLA-B*44:03; [12]) turn out when SEIPNLDIIG was run?
A: 1090 nM

Q: For SIYGFGVTF, which Kd (HLA-A*32:01; [10]) is on record?
A: 0.113 nM

Q: Which Kd (HLA-A*32:01; [8]) does the source give for SSKNQTWQIE here?
A: ≥ 31600 nM

Q: For SVSGTFVAEF, which Kd (HLA-A*01:01; [15]) is on record?
A: ≥ 45200 nM

Q: And the Kd (HLA-A*26:01 [2]; [15])?
A: 3070 nM

Q: And the Kd (HLA-A*29:02; [15])?
A: 9060 nM

Q: What about the Kd (HLA-A*30:01; [15]) of the same sequence?
A: ≥ 40000 nM

Q: What about the Kd (HLA-A*30:02; [15]) of the same sequence?
A: 7910 nM

Q: What about the Kd (HLA-A*32:01; [15]) of the same sequence?
A: 4410 nM

Q: For TEAKMLLDNI, which Kd (HLA-B*44:03; [14]) is on record?
A: 617 nM

Q: With TLFPGDDDL as the sequence, how does the Kd (HLA-A*02:01 [1]; [10]) read?
A: 394 nM

Q: What does the source list for TLMNVITLV?
A: Kd (HLA-A*11:01): ≥ 26900 nM; Kd (HLA-A*26:01 [5]; source organism: SARS-CoV1): 1120 nM; Kd (HLA-B*15:01 [6]): 6120 nM; Kd (HLA-B*27:05): 10100 nM; Kd (HLA-A*02:02; [16]): 0.34 nM; Kd (HLA-A*02:03; [16]): 0.251 nM; Kd (HLA-A*02:06; [16]): 0.697 nM

Q: Which Kd (HLA-A*32:01; [10]) does the source give for TVIFQTVVI here?
A: 569 nM

Q: VEDYGFGIF was tested. Which Kd (HLA-B*40:01; [14]) did it give?
A: 388 nM

Q: Which Kd (HLA-B*40:01; [8]) does the source give for VEMGEAAAI here?
A: 134 nM

Q: And the Kd (HLA-B*44:02; [8])?
A: 12.9 nM

Q: What about the Kd (HLA-B*44:03; [8]) of the same sequence?
A: 27.7 nM

Q: How did the Kd (HLA-A*02:01 [4]; [17]) turn out when VLTDFKTWL was run?
A: 4.06 nM

Q: What about the Kd (HLA-A*02:02; [17]) of the same sequence?
A: 1.56 nM

Q: And the Kd (HLA-A*02:03; [17])?
A: 7.3 nM

Q: And the Kd (HLA-A*02:06; [17])?
A: 140 nM

Q: And the Kd (HLA-A*68:02; [17])?
A: 2300 nM

Q: With VSGKLIHEW as the sequence, how does the Kd (HLA-B*57:01; source organism: dengue virus type 3) read?
A: 43.5 nM

Q: For WELVDKERAL, which Kd (HLA-B*40:01; [8]) is on record?
A: 24 nM

Q: WMSPTYQSW was tested. Which Kd (HLA-B*57:01; [18]) did it give?
A: 62.4 nM

Q: What about the Kd (HLA-B*58:01; [18]) of the same sequence?
A: 8.3 nM

Q: WRFQGSWNTG was tested. Which Kd (HLA-A*32:01; [14]) did it give?
A: ≥ 49000 nM
